Experimental data from patent US20260265696A1, “HUMAN IPSC DERIVED AMELOBLASTS AND USES THEREOF” (UNIVERSITY OF WASHINGTON, priority 2021, published 2026).

B1: BMP4: bone morphogenic protein-4 (protein, UniProt P12644 293-408, looked up)
Bone morphogenetic protein 4: SPKHHSQRARKKNKNCRRHSLYVDFSDVGWNDWIVAPPGYQAFYCHGDCPFPLADHLNSTNHAIVQTLVNSVNSSIPKACCVPTELSAISMLYLDEYDKVVLKNYQEMVVEGCGCR
B2: FGFR2-binder: computationally designed protein that specifically binds and inhibits the activity of the FGFR2; binding sequence SEQ ID NO. 1 (protein)
chain: MGDRRKEMDKVYRTAYKRITSTPDKEKRKEVVKEATEQLRRIAKDEEEKKKAAYMISFLKTLGLEHHHHHH

Tested on: hiPSCs (WTC-11) differentiating to ameloblasts (iAM)
Experiment: AMBN expression (QRT-PCR) in hiPSC-derived ameloblast (iAM) differentiation, day 10 to day 16, factors removed or added
Assay type: cell-based, human
Protocol: FIGS. 7A-7E: (FIG. 7A) Schematic of the 16-day differentiation protocol produced, which targets the identified signaling pathways utilizing growth factors and small molecules to transition through the ameloblast developmental trajectory. […] Each study was performed in triplicate, with error bars representing SEM. (FIG. 7C) The efficiency of each pathway activated in the differentiation from day 10 to day 16 were assessed by removing each agonist one at a time or adding FGFR2 mini binder to inhibit the FGFR2 pathway. AMBN expression was assessed in QRT-PCR, and each condition was performed in triplicate. Significance was determined by unpaired Student's t-test; ***p<0.001; ****p<0.0001; Graph error bars are the means±SEM.
To dissect which pathways were essential for the differentiation from day 10 to day 16, the process of elimination was used (FIG. 7C). […] It was hypothesized that the cells in culture secrete enough FGF ligands to saturate the receptors, and any exogenous ligands would have minimal effects. To test this hypothesis, a computationally designed protein was used, FGFR2 mini-binder (FGFR-mb), that specifically binds and inhibits the activity of the FGFR2 (Cao et al., 2022). […]
RNA was extracted using Trizol (Life Technologies) according to manufacturer's instructions. RNA samples were treated with Turbo DNase (Thermo Fisher Scientific) and quantified using Nanodrop ND-1000. […]

| Molecule | expression of AMBN when the factor is removed (factor removed independently from differentiation day 10 to day 16, compared to when all factors are present) | expression of AMBN on adding FGFR2 mini-binder (50 nM FGFR-mb added at day 14, harvested at day 16) |
| --- | --- | --- |
| B1 | significantly reduced to less than half | – |
| B2 | – | almost totally abolished |
